Assay results: patent US20090191228A1

Assays:
[1] = target: dH5-0 (recombinant hemagglutinin 5 of H5N1 strain A/Vietnam/1203/04, stock as supplied by Protein Sciences) (influenza virus H5N1 strain A/Vietnam/1203/04); assay: ELISA, immobilized H5 forms, Fn F4-5 in solution; normalized to cdH5-0
[2] = target: dH5-0 (recombinant hemagglutinin 5 of H5N1 strain A/Vietnam/1203/04, stock as supplied by Protein Sciences) (influenza virus H5N1 strain A/Vietnam/1203/04)

Substance | Normalized affinity, kD (%) [1] [%] | Bmax [2] | Kd [2] [nM]
fourth and fifth finger domain of fibronectin (Fn F4-5) (from UniProt P02751 183-275) | 103 |  | 
tissue type plasminogen activator (tPA) (from UniProt P00750 36-562) (enzyme) |  | 0.32 | 96
